The record followed here is patent US20100291074A1 (COLUMBIA UNIVERSITY IN THE CITY OF NEW YORK, published 2010).

One experiment addresses T1, monomeric Aβ40 (UniProt P05067 672-711).
T1 construct: domain: Aβ(1-40); Immobilized on a CM5 chip by amine coupling for SPR; also called Aβ(1-40); amyloid beta
Put plainly: SPR (BIAcore 3000), Aβ immobilized on a CM5 chip, CypD in the mobile phase, 25° C.; monomeric Aβ40. Here is the method: (§1) Aβ(1-40) and Aβ(1-42), including monomeric and oligomeric Aβ, were used in the binding assay. The kinetic parameters evaluating binding affinity were analyzed as described in the Examples. […] The evaluating curves (red line) were overlaid with experimental data.
(§2) The monomeric and oligomeric Aβ were prepared as described and characterized by atomic force microscopy. SPR studies were performed on a BIAcore 3000 system (BIAcore AB, Uppsala, Sweden). Aβ (500 μg/ml) was immobilized using the standard amino coupling on a research-grade CM5 sensor chip. […] The binding curves were analyzed with the global fitting model using BIA evaluation version 4.0.1 (BIAcore AB).

Another experiment concerns the target T2, monomeric Aβ42 (UniProt P05067 672-713).
T2 construct: domain: Aβ(1-42); Immobilized on a CM5 chip by amine coupling for SPR; also called Aβ(1-42); amyloid beta
Nature of the experiment: SPR (BIAcore 3000), Aβ immobilized on a CM5 chip, CypD in the mobile phase, 25° C.; monomeric Aβ42. As to the method: as §1, §2
In general terms: Surface plasmon resonance follows binding to a sensor surface in real time, without labels.

Another experiment has as its target T3, oligomeric Aβ40 (UniProt P05067 672-711).
T3 construct: domain: Aβ(1-40); Oligomer; Immobilized on a CM5 chip for SPR; also called Aβ(1-40); amyloid beta
Put plainly: SPR (BIAcore 3000), Aβ immobilized on a CM5 chip, CypD in the mobile phase, 25° C.; oligomeric Aβ40. Here is the method: as §1, §2

The target in the next experiment is T4, oligomeric Aβ42 (UniProt P05067 672-713).
T4 construct: domain: Aβ(1-42); Oligomer; Immobilized on a CM5 chip for SPR; also called Aβ(1-42); amyloid beta
T4 sequence (P05067 672-713 limits assumed): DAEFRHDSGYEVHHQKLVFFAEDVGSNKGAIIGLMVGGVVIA
Put plainly: SPR (BIAcore 3000), Aβ immobilized on a CM5 chip, CypD in the mobile phase, 25° C.; oligomeric Aβ42. Here is the method:
as §1, §2

What is called Kd is the concentration at which binding is half-saturated.

T2 sequence (P05067 672-713 limits assumed): as above
T3 sequence (P05067 672-711 limits assumed): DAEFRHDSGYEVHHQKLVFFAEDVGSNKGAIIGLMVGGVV
T1 sequence (P05067 672-711 limits assumed): as above

B1: purified recombinant human CypD protein (Cyclophilin D) (enzyme)
chain: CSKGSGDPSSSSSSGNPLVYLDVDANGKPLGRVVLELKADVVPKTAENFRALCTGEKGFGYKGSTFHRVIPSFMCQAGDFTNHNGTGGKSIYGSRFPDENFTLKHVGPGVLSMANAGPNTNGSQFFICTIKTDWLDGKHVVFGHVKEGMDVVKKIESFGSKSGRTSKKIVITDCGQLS
notes: also called human mitochondrial CypD protein; PPIF
With B1, the Kd in the experiment with monomeric Aβ40 was found to be 1700 nM; with monomeric Aβ42, 164 nM; with oligomeric Aβ40, 227 nM; with oligomeric Aβ42 it was 4 nM.
